From US20200353078A1 (AstraZeneca / MedImmune, published 2020)

Tests used:
[1] = target: T1, Human IL-33 (Axxora/Adipogen AG-40B-0038) (human, UniProt O95760 112-270, limits assumed); assay: cell-based or functional assay
T1 sequence (looked up): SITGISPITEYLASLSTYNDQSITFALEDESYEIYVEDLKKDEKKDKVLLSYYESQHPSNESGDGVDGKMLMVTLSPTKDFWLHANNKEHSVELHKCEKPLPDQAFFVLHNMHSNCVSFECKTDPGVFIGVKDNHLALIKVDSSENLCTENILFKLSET

[2] = target: T1, Human IL-33 (Axxora/Adipogen …); assay: cell-based or functional assay; remark: listed apart in the source
Human IL-33 Flag®His [3] = target: T2, Human IL-33 Flag®His (human); assay: ELISA, biotinylated antigen on streptavidin plate, anti-human IgG HRP
T2 construct: Mature IL-33 with C-terminal FLAG 10xHis tag, from E. coli; biotinylated via free cysteines where used biotinylated; also called Mature Human IL-33_FH; human IL-33 FH
T2 chain: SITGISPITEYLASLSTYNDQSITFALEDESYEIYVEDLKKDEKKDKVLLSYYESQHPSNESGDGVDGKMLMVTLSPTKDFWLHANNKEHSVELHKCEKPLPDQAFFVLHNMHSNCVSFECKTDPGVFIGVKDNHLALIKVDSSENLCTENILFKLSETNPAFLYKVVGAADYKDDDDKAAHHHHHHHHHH
Protocol: (§1) 96-well Greiner polypropylene plates (Greiner, 650201) were used for dilution preparation. Generally, each dilution was prepared in duplicate. IgG dilutions were allowed to block in PBS-M for 1 hour at room temperature before being used directly in ELISA experiments.
(§2) Streptavidin plates (Thermo Scientific, AB-1226) were coated with biotinylated antigen at 0.5 μg/ml in PBS and incubated overnight at 4° C. Plates were washed 3× with PBS and blocked with 300 μl/well blocking buffer (PBS-M) for 1 hour. Plates were washed 1× with PBS and blocked samples added, 50 μl/well for 1 hour at room temperature. […] Plates were washed 3× with PBS-T and developed with TMB, 50 μl/well (Sigma, T0440). The reaction was quenched with 50 μl/well 0.1M H2504 before reading on an EnVision™ plate reader, or similar equipment, at 450 nm.
(§3) Species cross-reactivity of anti-IL-33 antibodies was determined using a plate-based ELISA. Streptavidin plates (Thermo Scientific, AB-1226) were coated with biotinylated antigen at 0.5 μg/ml in PBS. Binding of purified IgG preparations was detected with anti-human IgG HRP (Sigma, A0170).

[4] = target: T3, Cynomolgus IL-33 Flag®His (cynomolgus monkey); assay: as above
T3 construct: C-terminal FLAG 10xHis tag, E. coli; also called Mature Cynomolugus IL-33; cyno IL-33 FH
T3 chain: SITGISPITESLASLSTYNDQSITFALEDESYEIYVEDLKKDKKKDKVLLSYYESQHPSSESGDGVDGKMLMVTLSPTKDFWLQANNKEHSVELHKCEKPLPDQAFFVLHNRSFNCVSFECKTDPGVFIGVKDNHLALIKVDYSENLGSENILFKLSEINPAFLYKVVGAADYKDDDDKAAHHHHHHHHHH
Protocol: as §1, §2, §3

Mouse IL-33 Flag®His [5] = target: T4, Mouse IL-33 Flag®His (mouse); assay: as above
T4 construct: C-terminal FLAG 10xHis tag, E. coli; also called Mature Mouse IL-33_FH; mouse IL-33 FH
T4 chain: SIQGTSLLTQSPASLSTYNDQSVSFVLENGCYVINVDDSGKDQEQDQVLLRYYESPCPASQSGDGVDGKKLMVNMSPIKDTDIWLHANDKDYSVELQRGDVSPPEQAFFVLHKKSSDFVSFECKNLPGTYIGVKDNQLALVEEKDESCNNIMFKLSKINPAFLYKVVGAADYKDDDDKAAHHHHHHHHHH
Protocol: as §1, §2, §3

[6] = target: T5, Human IL-33 (Axxora/Alexis ALX-522-098) (human, UniProt O95760 112-270); assay: cell-based or functional assay
T5 sequence (looked up): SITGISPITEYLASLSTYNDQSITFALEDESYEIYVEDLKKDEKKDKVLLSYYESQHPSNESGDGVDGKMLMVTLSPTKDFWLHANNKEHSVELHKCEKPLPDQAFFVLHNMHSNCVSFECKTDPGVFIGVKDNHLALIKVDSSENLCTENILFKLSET

[7] = target: T1, Human IL-33 (Axxora/Adipogen …); assay: cell-based or functional assay; remark: listed apart in the source
Human IL-33 Flag®His [8] = target: T2, Human IL-33 Flag®His; assay: BIAcore 2000 solution affinity, 48 h equilibration at 25 C, free IgG read on biotinylated IL-33 chip
Protocol: The binding affinity of purified IgG samples of exemplary binding members to human, cynomolgus or mouse IL-33 was determined by solution affinity using a BIAcore 2000 (GE healthcare). A biotinylated-IL33 surface was immobilised on a streptavin coated sensor chip (GE healthcare cat. No. BR-1000-32). Anti-IL33 antibodies were incubated with various concentrations of unlabelled IL33 and equilibrated at 25° C. for 48 hours. The amount of free antibody was determined by flowing the samples over the IL33 chip and measuring the response compared to a standard curve of antibody. Affinities were determined using the solution affinity fit in BIAevaluation software. The affinities for antibodies IL330101, H338L293, IL330388, IL330396 binding to human, cynomolgus or mouse IL-33 are shown in Table 15.

[9] = target: T6, H338L293 (SEQ ID NOs 182 and 187); assay: Biacore T100, IgG captured on Protein G', 0.625-20 nM peptide as analyte, 1:1 fit
T6 construct: IgG; also called H338L293_fgl; H338L293 IgG
T6 sequence (VL, as listed by the source): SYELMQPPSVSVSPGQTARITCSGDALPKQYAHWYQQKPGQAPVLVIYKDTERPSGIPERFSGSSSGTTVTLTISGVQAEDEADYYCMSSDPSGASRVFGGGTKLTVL
Description: The identified peptide together with a truncate ([…]) and scrambled variants of both, were then chemically synthesised and used in confirmatory T100 Biacore (GE Healthcare) binding studies. Protein G′ (Sigma Aldrich, P4689) was covalently coupled to the surface of a CM5 sensor chip (GE Healthcare) using standard amine coupling reagents according to manufacturer's instructions. The protein G′ surface was used to capture H338L293 or ST2-Fc via the Fc domain to provide a surface density of approximately 290 RU per cycle. IL33 peptides prepared in HBS-EP+ buffer, at a range of concentrations were passed over the sensor chip surface. The surface was regenerated using two 10 mM Glycine washes of pH 1.7 and pH 1.5 between each injection of antibody. The resulting sensorgrams were evaluated using Biacore T100 evaluation software 2.0.3 (GE Healthcare) and fitted to a 1:1 Langmuir binding model, to provide relative binding data.

Mouse IL-33 Flag®His [10] = target: T4, Mouse IL-33 Flag®His; assay: ELISA, biotinylated antigen on streptavidin plate, purified IgG
Protocol: as §2, §3

[11] = target: T7, Human ST2-Fc (R&D Systems, or source not stated in the example) (human, UniProt Q01638 19-328); assay: SPR BIAcore 2000, ST2 captured via Fc-tag on anti-human Fc, IL-33 7.8 nM to 0.24 nM as analyte, 1:1 Langmuir
T7 construct: extracellular domain; also called sST2.Fc; sST2
T7 sequence (looked up): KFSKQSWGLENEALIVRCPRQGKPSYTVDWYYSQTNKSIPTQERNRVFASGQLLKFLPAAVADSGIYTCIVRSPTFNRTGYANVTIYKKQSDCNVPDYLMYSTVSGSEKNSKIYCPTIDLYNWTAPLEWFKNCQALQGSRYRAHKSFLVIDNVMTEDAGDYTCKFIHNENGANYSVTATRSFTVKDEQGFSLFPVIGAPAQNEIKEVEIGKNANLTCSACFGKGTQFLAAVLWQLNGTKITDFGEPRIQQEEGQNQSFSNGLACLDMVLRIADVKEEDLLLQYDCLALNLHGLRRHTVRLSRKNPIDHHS
Protocol: The disulphide bonded IL-33 is likely a very different structure to the reduced, ST2-binding IL-33 form (FIG. 22, 23), and conversion to the disulphide bonded form was associated with loss of functional activity (FIG. 17C). To investigate this, the disulphide bonded form of IL-33 was tested for ability to bind ST2 by BIAcore analysis. Direct binding of IL-33 to the extracellular domain of ST2 was determined by Surface Plasmon Resonance using a BIAcore 2000 (GE healthcare). ST2 was immobilised via the Fc-tag using an anti-human Fc capture (GE healthcare BR-1003-39) on a CM5 sensor chip (GE healthcare BR-1003-99) to give a stable surface of approximately 150 RU. IL-33 was flowed over the surface at 30 ul/min for three minutes to determine association rates. Dissociation was measured by flowing buffer at 30 ul/min for 15 minutes. Sensorgrams were interpreted using BIAevaluation software and kinetics were determined using double reference subtracted sensorgrams using a 1:1 (Langmuir) binding model.

B1: IL330101 IgG (antibody, V domains shown)
VH: EVQLLESGGGLVQPGGSLRLSCAASGFTFSSYAMSWVRQAPGKGLEWVSAISGSGGSTYYADSVKGRFTISRDNSKNTLYLQMNSLRAEDTAVYYCVRVVAGYFDSWGRGTLVTVSS
VL: SYVLTQPPSVSVSPGQTARITCSGDALPKQYAHWYQQKPGQAPALVIYKDTERPSGIPERFSGSSSGTTVTLTISGVQAEDEADYYCQSADSSGASRVFGGGTKVTVL
notes: IgG1 or IgG1-TM; also called mAb IL330101; IL3300101
Huvec IL-6 production, maximum inhibition [1]: ~70%
Mast cell IL-6 production, inhibition [1]: 100%
IC50, Huvec IL-6 production [2]: 193 nM
IC50, Mast cell IL-6 production [2]: 93 nM
EC50 (Human IL-33 Flag®His [3]): 1.19 nM
EC50 [4]: 1.2 nM
EC50 (Mouse IL-33 Flag®His [5]): 0.85 nM
IC50, TF-1 proliferation [6]: 149 nM
IC50 (geomean), Huvec IL-6 production [7]: 497 nM
IC50 (geomean), Mast cell IL-6 production [7]: 49 nM
Kd (Human IL-33 Flag®His [8]): 0.0032 pM

B2: Truncated IL-33 epitope peptide (peptide)
peptide: LSPTKDFWLHANNKEHSVELHK
notes: Chemically synthesised; also called truncate peptide
Kd [9]: 2.36 nM

B3: IL330065 IgG (antibody, V domains shown)
VH: EVQLVQSGAEVKKPGTAVKISCKASGYTFTDYYIHWVQQAPGKGLEWMGLVDPEDGETKYAEKFQGRVSITADTSTDTAYMELRSLTSEDTAVYFCTMGWAQWGRGTLVTVSS
VL: QSVLTQPPSASGTPGQRVTISCSGSSSNIGSNYVYWYQQVPGTAPKLVIYRDFQRPSGVPDRFSGSKSGNSASLVISGLRSEDEGEYVCAAWDDSLTGPRFGGGTKVTVL
notes: IgG1 or IgG1-TM (L234F, L235E, P331S); functional data combine both formats
binding result (Mouse IL-33 Flag®His [10]): no binding
EC50 (Human IL-33 Flag®His [3]): 0.65 nM
EC50 [4]: 0.66 nM
IC50 (geomean), TF-1 proliferation [6]: 81 nM
IC50 (geomean), Huvec IL-6 production [7]: 87 nM
IC50 (geomean), Mast cell IL-6 production [7]: 12 nM

B4: redIL-33 (detagged human IL33-01, BK349) (ligand, UniProt O95760 112-270, looked up)
chain: SITGISPITEYLASLSTYNDQSITFALEDESYEIYVEDLKKDEKKDKVLLSYYESQHPSNESGDGVDGKMLMVTLSPTKDFWLHANNKEHSVELHKCEKPLPDQAFFVLHNMHSNCVSFECKTDPGVFIGVKDNHLALIKVDSSENLCTENILFKLSET
notes: Reduced form; also called reduced IL-33; Human IL33-01 detagged
Kd [11]: 0.2 nM
